# Target: T1, BosR (rBosR) (UniProt O51592 1-176)
# Assay: EMSA; 20 mM Hepes pH 7.5, 50 mM KCl, 1 mM MgCl2, 1 mM DTT, 5% glycerol, 100 ug/ml BSA, 50 ug/ml poly[d(A-T)], 30 fmol probe in 20 ul, 37 C 30 min
# Conditions: protein: recombinant; tags: none (His6-SUMO tag removed by SUMO protease); chain copies: 2; label: digoxigenin 3' end (terminal transferase); blunt
row,Binder,Kd
1,ZM127 (BS2) (dsDNA) DNA 1: TTTAGTTTAAAACCATTTTTAAATTAAATTGGCACAGTTTTTGCATGAAAATTAAGTAGT DNA 2: ACTACTTAATTTTCATGCAAAAACTGTGCCAATTTAATTTAAAAATGGTTTTAAACTAAA,36.6 nM
2,ZM132 (BS1) (dsDNA) DNA 1: GGCCTTGCCGATTTAATTTACAATCAATTACAAAAAAGTAAATAATTCAAAAAATACTCC DNA 2: GGAGTATTTTTTGAATTATTTACTTTTTTGTAATTGATTGTAAATTAAATCGGCAAGGCC,210 nM

# Same assay, conditions: protein: recombinant; tags: none (His6-SUMO tag removed by SUMO protease); chain copies: 2; label: digoxigenin 3' end; blunt
row,Binder,binding result
1,ZM155 (BS1 5' DR) (dsDNA) DNA 1: CTCAAAGCTTTGGCCTTGCCGATTTAATTTACAATCAATTACAAAGCTGAGATCTGTCGA DNA 2: TCGACAGATCTCAGCTTTGTAATTGATTGTAAATTAAATCGGCAAGGCCAAAGCTTTGAG,binds
2,ZM210 (ZM155 DR mutant) (dsDNA) DNA 1: CTCAAAGCTTTGGCCTTGCCGATTTGGCCTACAATCAATTACAAAGCTGAGATCTGTCGA DNA 2: TCGACAGATCTCAGCTTTGTAATTGATTGTAGGCCAAATCGGCAAGGCCAAAGCTTTGAG,no binding
3,ZM160 (5' of BS3) (dsDNA) DNA 1: TCACAATATTCAAGAAAGGGGAGAAAATATAATAACTATGAACATATTTAGTAATGAGGA DNA 2: TCCTCATTACTAAATATGTTCATAGTTATTATATTTTCTCCCCTTTCTTGAATATTGTGA,no binding
4,ZM166 (-24/-12 and DR mutant) (dsDNA) DNA 1: TTTAGTTTAAAACCATTTTTAGGCCAAATTTTCACAGTTTTTGAATTCCAACAGGCAAAA DNA 2: TTTTGCCTGTTGGAATTCAAAAACTGTGAAAATTTGGCCTAAAAATGGTTTTAAACTAAA,no binding
5,ZM126 (dsDNA) DNA 1: TTGCATGGAAATTAAGTAGTAAAAACTTAATCACAATATTCAAGAAAGGGGAGAAAATAT DNA 2: ATATTTTCTCCCCTTTCTTGAATATTGTGATTAAGTTTTTACTACTTAATTTCCATGCAA,no binding
6,ZM216 (ZM215 DR mutant) (dsDNA) DNA 1: TGGTTTAGATGGCCTTTTTTTCTCAATTCAGCAATTTCTGAATATAGAATTTTCATATCT DNA 2: AGATATGAAAATTCTATATTCAGAAATTGCTGAATTGAGAAAAAAAGGCCATCTAAACCA,no binding
7,ZM156 (BS1 3' DR) (dsDNA) DNA 1: GCTGAGATCTGTCGAATCAATTACAAAAAAGTAAATAATTCAAAAAATACTCCCCCTAAA DNA 2: TTTAGGGGGAGTATTTTTTGAATTATTTACTTTTTTGTAATTGATTCGACAGATCTCAGC,binds
8,ZM211 (ZM156 DR mutant) (dsDNA) DNA 1: GCTGAGATCTGTCGAATCAATTACAAAAAAGTAGGCCATTCAAAAAATACTCCCCCTAAA DNA 2: TTTAGGGGGAGTATTTTTTGAATGGCCTACTTTTTTGTAATTGATTCGACAGATCTCAGC,no binding
9,ZM213 (DR1 mutant) (dsDNA) DNA 1: ATTTTATATCCTAGGCCGTTTAAAACCATTTTTAAATTAAATTGGCACAGTTTTTGCATG DNA 2: CATGCAAAAACTGTGCCAATTTAATTTAAAAATGGTTTTAAACGGCCTAGGATATAAAAT,binds
10,ZM223 (DR1 and DR2 mutant) (dsDNA) DNA 1: ATTTTATATCCTAGGCCGTTTAAAACCATTTTTAGGCCAAATTGGCACAGTTTTTGCATG DNA 2: CATGCAAAAACTGTGCCAATTTGGCCTAAAAATGGTTTTAAACGGCCTAGGATATAAAAT,no binding
11,ZM218 (ZM217 DR mutant) (dsDNA) DNA 1: AGTGTAAAAAGGCCAATCAATTTTTTCATTAAATATCCTTTTTATTTATTATGGTATTAA DNA 2: TTAATACCATAATAAATAAAAAGGATATTTAATGAAAAAATTGATTGGCCTTTTTACACT,no binding
12,ZM219 (bosR upstream) (dsDNA) DNA 1: AAAAAAATATGAAAATAAATAAATAATAAGTAGTAAAATATTAATAACTGGGTATAAAAT DNA 2: ATTTTATACCCAGTTATTAATATTTTACTACTTATTATTTATTTATTTTCATATTTTTTT,binds
13,ZM220 (ZM219 DR mutant) (dsDNA) DNA 1: AAAAAAATATGAAAATGGCCAAATAATAAGTAGTAAAATATTAATAACTGGGTATAAAAT DNA 2: ATTTTATACCCAGTTATTAATATTTTACTACTTATTATTTGGCCATTTTCATATTTTTTT,no binding
14,ZM147 (dsDNA) DNA 1: AAAAAGCTGAGATCTGTCGACATCCATGGTGGCACAGTTTTTGCATGAAAATTAAGTAGT DNA 2: ACTACTTAATTTTCATGCAAAAACTGTGCCACCATGGATGTCGACAGATCTCAGCTTTTT,no binding
15,ZM149 (dsDNA) DNA 1: TTTAGTTTAAAACCATTTTTAAATTAAATTGGCACAGTTTTTGCATTTTAACAGGCAAAA DNA 2: TTTTGCCTGTTAAAATGCAAAAACTGTGCCAATTTAATTTAAAAATGGTTTTAAACTAAA,binds

# Target: T1, BosR (rBosR)
# Assay: EMSA; binding not altered; 20 mM Hepes pH 7.5, 50 mM KCl, 1 mM MgCl2, 1 mM DTT, 5% glycerol, 100 ug/ml BSA, 50 ug/ml poly[d(A-T)], 30 fmol probe in 20 ul, 37 C 30 min
# Conditions: protein: recombinant; tags: none (His6-SUMO tag removed by SUMO protease); chain copies: 2; label: digoxigenin 3' end; blunt
row,Binder,binding result
1,ZM157 (-24/-12 mutant) (dsDNA) DNA 1: TTTAGTTTAAAACCATTTTTAAATTAAATTTTCACAGTTTTTGAATTCCAACAGGCAAAA DNA 2: TTTTGCCTGTTGGAATTCAAAAACTGTGAAAATTTAATTTAAAAATGGTTTTAAACTAAA,binds

# Target: the molecule itself
# Assay: SEC; purified BosR on a Superdex 200 column, calibrated with aldolase 158 kDa, ovalbumin 43 kDa and ribonuclease A 13.7 kDa; buffer A: 20 mM Tris, 20 mM NaCl, 100 mM L-arginine, pH 7.5
# Conditions: not given
row,Binder,stoichiometry N
1,"Recombinant BosR (BB0647) (natural protein, BosR (BB0647), Fur/PerR homologue of Borrelia burgdorferi; bosR amplified with primers ZM69F and ZM69R and cloned into pET SUMO (pOY73); apparent mass ~18.7 kDa, as for native BosR; The protein contained 1.4 mol of zinc per mol of protein; also called rBosR; purified BosR; source: E. coli BL21-DE3, purified (Ni-NTA spin column, SUMO protease cleavage, Superdex 200); not shown: His6, N-terminal, …) MNDNIIDVHSALEKVGITNDPVLLKNLTSELGMKASHSRNRIILYIASNPKEYFTAKEVYNKLIKEIPSLSKATVYNTLNILKERNILKDIKTTDQKETKFYLSLASTIAHFKCNKCNQVHPIQLDDIKDILKDKLGENWETKSIEIIYSGHCNNCYKKDTHNNNNVPDENKEITL",2
